# Measured values reported in the nanobody polyreactivity screen of Harvey et al. (2022).
# Assay: yeast display, Sf9 membrane polyspecificity reagent, FACS + sequencing; frameworks hold sequencing errors
# Outline: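 In a synthetic yeast display library (Saccharomyces cerevisiae BJ5465), nanobody expression was induced with galactose for 36–48 hours. FACS gates were set low and high (top ~1%) using anti-HA fluorescence for expression and streptavidin fluorescence for binding of the Sf9 membrane reagent. Each polyreactivity label is drawn from the gate of origin.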
row,Sequence,polyreactivity (PSR sort gate)
1,QVQLVESGGGLVQAGGSLRLSCAASGRTFTEYAMGWYRQAPGKEREFVARIRWSDGSTYYADSVKGRFTISRDNAKNTVYLQMNSLLPEDTAVYYCAARYIETPVTVLSLMDYWGQGTQVTVSS,low polyreactivity
2,QVQLVESGGGLVQAGGSLRLSCAASGRTFTFYAMGWYRQAPGKERELVAAIRRGGSTIYADSVKGRFTISRDNAKNTVYLQMNSLKPEDTAVYYCNKRVWYPYWTLDYWGQGTQVTVSS,low polyreactivity
3,QVQLVESGGGLVQAGGSLRLSCAASGRTFTFYAMGWYRQAPGKERELVAAITWSGGSTYYADSVKGRFTISRDNAKNTVYLQRNSLKPEDTAVYYCAKLDVISDDLDYWGQGTQVTVSS,low polyreactivity
4,QVQLVESGGGLVQAGGSLRLSCAASGRTFTHYAMGWYRQAPGKERELVAAITASGGSTYYADSVKGRFTISRDNAQNTVYLQMNSLKPEDTAVYYCATEANQRTLNDTVKDYDYWGQGTQVTVSS,low polyreactivity
5,QVQLVESGGGLVQAGGSLRLSCAASGRTFTINTMGWYRQAPGKERELVAAITVSGGSTYYADSVKGRFTISRDNAKNTVYLQMNSLKPEDTAVYYCAAQRSYVNLGQTHDYWGQGTQVNVSS,low polyreactivity
6,QVQLVESGGGLVQAGGSLRLSCAASGRTFTKNAMGWYRQAPGKEREFVAAISKSTGSTYYADSVKGRFTISRDNAKNTVYLQMNSLKPEDTAVYYCNARYRFFIQARWGYIFGYWGQGTQVTVSS,high polyreactivity
7,QVQLVESGGGLVQAGGSLRLSCAASGRTFTKYAMGWYRQAPGKERELVAAISRSGGSTYYADSVKGRFTISRDNAKNTVYLQMNSLKPEDTAVYYCAARGQYRYSFGDYSWGQGTQVTVSS,high polyreactivity
8,QVQLVESGGGLVQAGGSLRLSCAASGRTFTLYAMGWYRQAPGKERELVASITSGTRTYYADSVKGRFTISRDNAKNTVYLQMNSLKPEDTAVYYCAKEGYLRTLHRLYDYWGQGTQVTVSS,low polyreactivity
9,QVQLVESGGGLVQAGGSLRLSCAASGRTFTPYAMGWYRQAPGKERELVAAIDTSGGSTYADSVKGRFTISRDNAKNTVYLQMNSLKPEDTAVYYCAATRHSRVRGGDYWGQGTQVTVSS,low polyreactivity
10,QVQLVESGGGLVQAGGSLRLSCAASGRTFTPYAMGWYRQAPGKERELVAAISIGGPTNYADSVKGRFTISRDNAKNTVYLQMNSLKPEDTADYYCAADSYYLGRDGFGFYAYTYDYWGQGTEVTVSS,low polyreactivity
11,QVQLVESGGGLVQAGGSLRLSCAASGRTFTRNAMGWYRQAPGKDRELVAAISYSGGSTYYADSVKGRFTISRDNAKNTVYLQMNSLKPEDTAVYYCNAATSRRSIRYDYWGQGTQVTVSS,high polyreactivity
12,QVQLVESGGGLVQAGGSLRLSCAASGRTFTRYAMGWYRQAPGKERELVAAISGGGGSTYYADSVKGRFTISRDNAKNTVYLQMNSLKPEDTAVYYCAAGPWFYYWGQGTQVTVSS,low polyreactivity
13,QVQLVESGGGLVQAGGSLRLSCAASGRTFTRYAMGWYRQAPGKERELVAAISRGGSTYYADSVKGRFTISRDNAKNTVYLQMNSPKPEDTAVYYCAARYGTYTAGNYWGQGTQVTVSS,high polyreactivity
14,QVQLVESGGGLVQAGGSLRLSCAASGRTFTRYAMGWYRQAPGKERELVATITRGGSTNYADSVKGRFTISRDNAKNTVYLQMNSLKPEDTAVYYCAAGYFIRTRSRYRYDYWGQCTQVTVSS,high polyreactivity
15,QVQLVESGGGLVQAGGSLRLSCAASGRTFTRYAMGWYRQPPGKESELVAAISRGGNTNYADSVKGRFTISRDNAKNTVYLQMNSLKPEDTAVYYCARVYGGYSVPSAYGSWGQGTQVTVSS,high polyreactivity
16,QVQLVESGGGLVQAGGSLRLSCAASGRTFTRYAMGWYRQSPGKERELVAAISTSGDSTYYADSVKGRFTISRDNAKNTVYLQMNSLKPVDTAVYYCNTYWTSEYDYWGQGTQVTVSW,low polyreactivity

row,Sequence,polyreactivity (PSR sort gate)
1,QVQLVESGGGLVQAGGSLRLSCAASGRTFTSNAMGWYRQAPGKERELVAAITQSGGSTYYADSVKGRFTISRDNAKNTVYLQMNSLKPEDTAVYYCNAETTGRTEYNYWGQGTQVTVSS,low polyreactivity
2,QVQLVESGGGLVQAGGSLRLSCAASGRTFTSNGMGWYRQAPGKERELVAAITSGTSTYYADSVKGRFTISRDNAKNPVYLQMNSLKPEDTAVYYCNKLVPRGSSYSTVIRGGGYWGQGTQVTVSS,high polyreactivity
3,QVQLVESGGGLVQAGGSLRLSCAASGRTFTSYAMGCYRQEPGKERELVAAITRGGRTNYADSVKGRFTISRDNAKNTVYLQMNSLKPEDTAVYYCNTEIRLSKYDYWGQGTQVTVSS,low polyreactivity
4,QVQLVESGGGLVQAGGSLRLSCAASGRTFTTYTMGWYRQAPGKERELVASINYRGGRTYYADSVKGRFTISRDNAKNTVYLQMNSLKPEDTAVYYCAYYPYGYDYWGQGTQVTVSS,high polyreactivity
5,QVQLVESGGGLVQAGGSLRLSCAASGRTFTVYPMGWYRQAPVKEREFVAAITERGGSTYYADSVKGRFTISRDNAKNTVYLQMNSLKPEDTAVYYCAAVYYWRPGWYVRFDYWGQGTQVTVSS,low polyreactivity
6,QVQLVESGGGLVQAGGSLRLSCAASGRTFTWNVMGWYIQAPGKERELVAAISSSGGDTYYADSVKGRFTISRDNAKNTVYLHMNSLKPEDTAVYYCAAGQVYSGYEYWGQGTQVTVSS,low polyreactivity
7,QVQLVESGGGLVQAGGSLRLSCAASGRTFTWNVMGWYRQAPGKERELVAAITTDDRTYADSEKGRFTISRDNAKNTVYLQMNSLKQEDTAVYYCATVVAWTSRPVGEDYWGQGTQVTVSS,low polyreactivity
8,QVQLVESGGGLVQAGGSLRLSCAASGRTFTYNAMGWYRQAPGKERELVAAITYRGGSTYYADSVKGRFTISRDNAKNTVYLQMNSLKPEDTAVYYCAARVSYYRYNTPHYYYWGQGTQVTVSS,high polyreactivity
9,QVQLVESGGGLVQAGGSLRLSCAASGRTFTYYAMGWYRQAPGKERELVAAISWSGDDTYYADSVKGRFTISRDNAKNTVYLQMHSLKPEDTAVYYCAAEGGGVYSDYRENTGEDYWGQGTQVTVSS,low polyreactivity
10,QVQLVESGGGLVQAGGSLRLSCAASGRTFVAKTMGWYRQAPGKERELVAAISSSGGSTYYADSVKGRFTISRDNAKNTVYLQMNSLKPEDTAVYYCAKTHSGWWRYGYWGQGTQVTVSS,high polyreactivity
11,QVQLVESGGGLVQAGGSLRLSCAASGRTFVANAMGWYRQAPGKERELVAAITSTGSTYYADSVKGRFTISRDNAKNTVYLQMNSLKPEDTAVYYCATYYWLGLSLYDYWGQGSQVTVSS,low polyreactivity
12,QVQLVESGGGLVQAGGSLRLSCAASGRTFVDYDMGWYRQAPGKERELVADINSGGSTYYADSVKGRFTISRDNAKNTVYLQMNRLKPEDTAVYYCAADDGWGYISSYDYEYWGQGTQVTVSS,high polyreactivity
13,QVQLVESGGGLVQAGGSLRLSCAASGRTFVGNTMGWYRQAPGKERELVAAISTGDGSTTYADSVKGRFTISRDNAKNTVYLQMNSLKPEDTAVYYCNVKYRASYRTDFEYWGLGTQVTVSS,low polyreactivity
14,QVQLVESGGGLVQAGGSLRLSCAASGRTFVGYTMGWYRQAPGKERELVAAIDLSDGSTSYADSVKGRFTISRDNAKNSVYLQMNSLKPEDTAVYYCAKTWANVYAGAHDYWGQGTQVTVSS,low polyreactivity
15,QVQLVESGGGLVQAGGSLRLSCAASGRTFVGYTMGWYRQAPGKERELVAAIDLSDGSTSYADSVKGRFTISRDNAKNTVYLQMNSLKPEDTAVYYCAKSWANVYAGAHDYWGQGTQVTVSS,low polyreactivity
16,QVQLVESGGGLVQAGGSLRLSCAASGRTFVNNAMGWYRQAPGKERELVAAITRSGGRTYYADSVKGRFTISRDNAKNTVYLQMNSLKPVDTAVYYCATANVRLRHDDYWGQGTQVTVSS,high polyreactivity
